Results on 42 molecules are retold here after patent publication US20070185311A1 (EPIX MEDICAL INC A DELAWARE, published 2007).

First the molecules themselves.
T1: DD(E) fragment of fibrin
T1 chain 1: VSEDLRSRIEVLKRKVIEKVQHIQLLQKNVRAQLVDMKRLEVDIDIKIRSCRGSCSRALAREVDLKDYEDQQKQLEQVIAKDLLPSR
T1 chain 2: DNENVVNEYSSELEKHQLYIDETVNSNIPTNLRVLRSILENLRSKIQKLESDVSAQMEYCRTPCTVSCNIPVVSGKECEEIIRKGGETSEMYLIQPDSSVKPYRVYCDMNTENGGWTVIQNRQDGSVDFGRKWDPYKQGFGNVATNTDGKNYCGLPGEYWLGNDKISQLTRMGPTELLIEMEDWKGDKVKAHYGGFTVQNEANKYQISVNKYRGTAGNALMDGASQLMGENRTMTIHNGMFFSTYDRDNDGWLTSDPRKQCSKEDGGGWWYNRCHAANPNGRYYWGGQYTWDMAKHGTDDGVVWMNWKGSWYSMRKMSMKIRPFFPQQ
T1 chain 3: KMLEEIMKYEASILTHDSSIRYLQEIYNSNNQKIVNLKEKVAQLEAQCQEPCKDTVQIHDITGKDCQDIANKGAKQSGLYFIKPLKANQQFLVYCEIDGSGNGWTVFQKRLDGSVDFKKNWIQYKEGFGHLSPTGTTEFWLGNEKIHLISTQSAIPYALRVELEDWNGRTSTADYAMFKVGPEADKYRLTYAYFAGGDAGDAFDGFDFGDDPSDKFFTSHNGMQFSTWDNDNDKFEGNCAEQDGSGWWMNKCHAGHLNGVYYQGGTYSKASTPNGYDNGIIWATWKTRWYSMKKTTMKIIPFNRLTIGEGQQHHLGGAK
T1 chain 4: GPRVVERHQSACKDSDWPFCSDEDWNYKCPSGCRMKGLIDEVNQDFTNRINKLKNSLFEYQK
T1 chain 5: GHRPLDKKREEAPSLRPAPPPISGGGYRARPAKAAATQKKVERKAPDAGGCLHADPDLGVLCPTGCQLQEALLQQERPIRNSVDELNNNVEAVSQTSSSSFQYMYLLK
T1 chain 6: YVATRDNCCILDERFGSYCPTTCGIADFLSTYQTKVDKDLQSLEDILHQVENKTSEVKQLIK

B1: F-H-C-Hyp-Y(3-I)-D-L-C-Taz-I (peptide)
peptide: FHC[Hyp][Tyr(3-I)]DLC[Taz]I
modifications: disulfide 3-8 (inferred); reading uncertain; also: printed as F-H-C-Hyp-Y(3-I)-D-L-C-Taz-I
B2: F-H-C-Hyp-Y(3-I)-D-L-C-Dht-I (peptide)
peptide: FHC[Hyp][Tyr(3-I)]DLC[Dht]I
modifications: disulfide 3-8 (inferred); reading uncertain; also: printed as F-H-C-Hyp-Y(3-I)-D-L-C-Dht-I

Starred links: 1 amine or outer side, 2 acyl side, 3 side chain; linkers in the order of their positions; H or OH if unused. Positions of bridges follow the written chain, without caps; N, C: chain ends. Non-standard residues stand in square brackets, D forms with d. Primed or numbered codes have the meaning given here. No end group written: not given here. Phe(4-OMe) = COc1ccc(C[C@H](N[*:1])C(=O)[*:2])cc1; Phe(F5) = N[C@@H](Cc1c(F)c(F)c(F)c(F)c1F)C(=O)O; Bpa = N[C@@H](Cc1ccc(C(=O)c2ccccc2)cc1)C(=O)O; Tyr(3-Cl) = N[C@@H](Cc1ccc(O)c(Cl)c1)C(=O)O; Bip = N[C@@H](Cc1ccc(-c2ccccc2)cc1)C(=O)O; Tyr(3-F) = N[C@@H](Cc1ccc(O)c(F)c1)C(=O)O; Tyr(3-I) = N[C@@H](Cc1ccc(O)c(I)c1)C(=O)O; Phe(3-OMe) = COc1cccc(C[C@H](N)C(=O)O)c1; Phe(3-Me) = Cc1cccc(C[C@H](N)C(=O)O)c1; Hyp = O=C(O)[C@@H]1C[C@@H](O)CN1; hPhe = N[C@@H](CCc1ccccc1)C(=O)O; 2Pal = N[C@@H](Cc1ccccn1)C(=O)O; 4Pal = N[C@@H](Cc1ccncc1)C(=O)O; NDecylGly = CCCCCCCCCCNCC(=O)O; Phe(4-Et)′ = not defined here; Phg = N[C@H](C(=O)O)c1ccccc1; Ad = adenosine base unit; Gu = guanosine base unit; Dht = not defined here; Taz = not defined here; Inp = O=C(O)C1CCNCC1

The target in the first assay is T1, DD(E) fragment of fibrin. Put plainly: affinity to DD(E) fragment of fibrin.
As for T[dE]C[Hyp][Tyr(3-Cl)]GLCWIQ (disulfide 3-8 (inferred)) [T-(D-E)-C-Hyp-Y(3-Cl)-G-L-C-W-I-Q], the Kd was ≤ 200 nM.

Take H[dE]C[Hyp][Tyr(3-Cl)]GLCWIQ (disulfide 3-8 (inferred)) [H-(D-E)-C-Hyp-Y(3-Cl)-G-L-C-W-I-Q]: the Kd is ≤ 200 nM.

As for WEC[Hyp][Tyr(3-Cl)]GLCHIQ (disulfide 3-8 (inferred)) [W-E-C-Hyp-Y(3-Cl)-G-L-C-H-I-Q], the Kd is ≤ 200 nM.

For the molecule WEC[Hyp][Tyr(3-Cl)]GLCFIQ (disulfide 3-8 (inferred)) [W-E-C-Hyp-Y(3-Cl)-G-L-C-F-I-Q], the equilibrium dissociation constant (Kd) is ≤ 200 nM.

For YEC[Hyp][Tyr(3-Cl)]GLCYIQ (disulfide 3-8 (inferred)) [Y-E-C-Hyp-Y(3-Cl)-G-L-C-Y-I-Q], the dissociation constant Kd was ≤ 200 nM.

Take S[dE]C[Hyp][Tyr(3-Cl)]GLCWIQ (disulfide 3-8 (inferred)) [S-(D-E)-C-Hyp-Y(3-Cl)-G-L-C-W-I-Q]: the Kd is ≤ 200 nM.

The target of the next assay is DD(E) fragment of fibrin. Put plainly: affinity to DD(E) fragment of fibrin.
For the molecule [dF][dE]C[Hyp][Tyr(3-Cl)]GLCWIQ (disulfide 3-8 (inferred)) [(D-F)-(D-E)-C-Hyp-Y(3-Cl)-G-L-C-W-I-Q], the Kd was < 200 nM.

Take FHC[Hyp]YDLCHIL (disulfide 3-8 (inferred)) [F-H-C-Hyp-Y-D-L-C-H-I-L]: the Kd was < 500 nM.

Take YEC[Hyp][Tyr(3-Cl)]GLCWIQ (disulfide 3-8 (inferred)) [Y-E-C-Hyp-Y(3-Cl)-G-L-C-W-I-Q]: the Kd is < 300 nM.

Turning to FHC[Hyp][Tyr(3-I)]DLC[Bpa]I (disulfide 3-8 (inferred)) [F-H-C-Hyp-Y(3-I)-D-L-C-Bpa-I], the Kd is < 400 nM.

Turning to FHC[Hyp][Tyr(3-I)]DLCH[Phg] (disulfide 3-8 (inferred)) [F-H-C-Hyp-Y(3-I)-D-L-C-H-Phg], the Kd is < 200 nM.

[Tyr(26-Me)]HC[Hyp][Tyr(3-I)]DLCHI (disulfide 3-8 (inferred)) [Y(26-Me)-H-C-Hyp-Y(3-I)-D-L-C-H-I]: the dissociation constant (Kd) was < 200 nM.

As for FHC[Hyp][Tyr(3-I)]DLCH[Phe(3-Me)] (disulfide 3-8 (inferred)) [F-H-C-Hyp-Y(3-I)-D-L-C-H-F(3-Me)], the Kd is < 200 nM.

With LPCDYYGTC[NDecylGly][dD] (not fully specified; cysteine pairing not given here) [L-P-C-D-Y-Y-G-T-C-n(Decyl)G-dD], the Kd was < 10000 nM.

For the molecule Y[dE]C[Hyp][Tyr(3-Cl)]GLCWIQ (disulfide 3-8 (inferred)) [Y-(D-E)-C-Hyp-Y(3-Cl)-G-L-C-W-I-Q], the dissociation constant Kd was < 100 nM.

On to FEC[Hyp][Tyr(3-Cl)]GLCWIQ (disulfide 3-8 (inferred)) [F-E-C-Hyp-Y(3-Cl)-G-L-C-W-I-Q], for which the Kd is < 500 nM.

With WECPYGLCWIQ (disulfide 3-8 (inferred)) [W-E-C-P-Y-G-L-C-W-I-Q], the Kd was < 200 nM.

Regarding [Gu]HC[Hyp][Tyr(3-I)]DLCHI (disulfide 3-8 (inferred)) [Gu-H-C-Hyp-Y(3-I)-D-L-C-H-I], the Kd was < 500 nM.

Consider FHC[Hyp][Tyr(3-I)]DLCH[Bip] (disulfide 3-8 (inferred)) [F-H-C-Hyp-Y(3-I)-D-L-C-H-Bip], for which the dissociation constant (Kd) is < 100 nM.

Take [Phe(4-OMe)]HC[Hyp]YDLCHIL (disulfide 3-8 (inferred)) [F(4-OMe)-H-C-Hyp-Y-D-L-C-H-I-L]: the Kd is < 400 nM.

As for [Tyr(3-Cl)]HC[Hyp][Tyr(3-I)]DLCHI (disulfide 3-8 (inferred)) [Y(3-Cl)-H-C-Hyp-Y(3-I)-D-L-C-H-I], the Kd was < 100 nM.

[Phe(4-OMe)]HC[Hyp][Tyr(3-I)]DLCHIL (disulfide 3-8 (inferred)) [F(4-OMe)-H-C-Hyp-Y(3-I)-D-L-C-H-I-L]: the Kd was < 100 nM.

Consider FHC[Hyp][Tyr(3-F)]DLCHIL (disulfide 3-8 (inferred)) [F-H-C-Hyp-Y(3-F)-D-L-C-H-I-L], for which the Kd was < 100 nM.

As for [Phe(F5)]HC[Hyp][Tyr(3-I)]DLCHI (disulfide 3-8 (inferred)) [F(F5)-H-C-Hyp-Y(3-I)-D-L-C-H-I], the Kd is < 100 nM.

With [Ad]HC[Hyp][Tyr(3-I)]DLCHI (disulfide 3-8 (inferred)) [Ad-H-C-Hyp-Y(3-I)-D-L-C-H-I], the Kd was < 400 nM.

B1: the Kd was < 500 nM.

With FHC[Hyp][Tyr(3-I)]DLCH[Phe(4-Et)′] (disulfide 3-8 (inferred)) [F-H-C-Hyp-Y(3-I)-D-L-C-H-F(4-Et)], the Kd was < 100 nM.

As to FHC[Hyp]YDLCH[Bpa] (disulfide 3-8 (inferred)) [F-H-C-Hyp-Y-D-L-C-H-Bpa], the Kd is < 300 nM.

Turning to [Bip]HC[Hyp]YDLCHIL (disulfide 3-8 (inferred)) [Bip-H-C-Hyp-Y-D-L-C-H-I-L], the Kd is < 500 nM.

As for FHC[Hyp][Tyr(3-I)]DLCH[Phe(4-OMe)] (disulfide 3-8 (inferred)) [F-H-C-Hyp-Y(3-I)-D-L-C-H-F(4-OMe)], the Kd is < 100 nM.

With [Phe(4-OMe)][His(Bzl)]C[Hyp][Tyr(3-Cl)]DLCH[Bpa] (disulfide 3-8 (inferred)) [F(4-OMe)-H(Bzl)-C-Hyp-Y(3-Cl)-D-L-C-H-Bpa], the Kd was < 100 nM.

With F[dE]C[Hyp][Tyr(3-Cl)]GLCWIQ (disulfide 3-8 (inferred)) [F-(D-E)-C-Hyp-Y(3-Cl)-G-L-C-W-I-Q], the Kd was < 300 nM.

For the molecule [hPhe]HC[Hyp]YDLCHIL (disulfide 3-8 (inferred)) [Hfe-H-C-Hyp-Y-D-L-C-H-I-L], the Kd was < 500 nM.

In the case of FHC[Hyp][Tyr(3-I)]DLC[4Pal]I (disulfide 3-8 (inferred)) [F-H-C-Hyp-Y(3-I)-D-L-C-4Pal-I], the Kd was < 200 nM.

FHC[Hyp][Tyr(3-I)]DLCH[Phe(3-OMe)] (disulfide 3-8 (inferred)) [F-H-C-Hyp-Y(3-I)-D-L-C-H-F(3-OMe)]: the Kd was < 100 nM.

For the molecule LPCDYYGTC[NDecylGly]D (not fully specified; cysteine pairing not given here) [L-P-C-D-Y-Y-G-T-C-n(Decyl)G-D], the dissociation constant (Kd) is < 10000 nM.

With B2, the Kd was < 500 nM.

Regarding FHCP[Tyr(3-Cl)]DLCHIL (disulfide 3-8 (inferred)) [F-H-C-P-Y(3-Cl)-D-L-C-H-I-L], the Kd is < 200 nM.

Consider FHC[Hyp][Tyr(3-I)]DLCH[nVal] (disulfide 3-8 (inferred)) [F-H-C-Hyp-Y(3-I)-D-L-C-H-nVal], for which the Kd is < 200 nM.

On to FHC[Hyp][Tyr(3-I)]DLC[2Pal]I (disulfide 3-8 (inferred)) [F-H-C-Hyp-Y(3-I)-D-L-C-2Pal-I], for which the Kd was < 500 nM.

Consider LPCDYYGTC[MeL][Inp] (cysteine pairing not given here) [L-P-C-D-Y-Y-G-T-C-MeL-Inp], for which the Kd was < 10000 nM.

FHCPYDLCHIL (disulfide 3-8 (inferred)) [F-H-C-P-Y-D-L-C-H-I-L]: the Kd is < 300 nM.

By Kd is commonly meant a measure of binding affinity in units of concentration.
